Reference: the supplement of paper PMC10724198
± gives the standard deviation of the averaged measurements.

System: Saccharomyces cerevisiae
Assay: protein stability index of tFT-peptide fusion (C-terminal peptide) (PSI (0-1 scale)); higher = more stable (slower turnover)
Conditions: genetic background: wild type; temperature: 30 C
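Further: PSI is a weighted mean of sequencing reads over stability bins, variants kept only with over 10 reads, mCherry proximal and sfGFP distal, peptide attached via GGGS linker.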

| Sequence | protein stability index |
| --- | --- |
| PPPIPPFRLSRS | 0.69 ± 0.061 |
| KKRQNIAKSEDT | 0.701 ± 0.025 |
| EPRVGCVGFGIT | 0.638 ± 0.013 |
| HLAHVCYEVPTY | 0.568 ± 0.04 |
| FSLPSLLPDPPS | 0.579 ± 0.011 |
| KDTDTAHETERK | 0.697 ± 0.033 |
| PPLRPHHPLYHS | 0.687 ± 0.011 |
| LPPRPLPPPSRT | 0.7 ± 0.076 |
| EFRQVDGRASRP | 0.701 ± 0.0049 |
| SAWGLVLVGSWG | 0.602 ± 0.011 |
| PSPTPLPSPRLP | 0.676 ± 0.098 |
| MITRPASKYLVK | 0.6221 ± 0.0052 |
| PPSLPLPLPSAP | 0.683 ± 0.015 |
| GGVSCYVHRRAR | 0.688 ± 0.06 |
| PPPPPLSPHSPP | 0.699 ± 0.023 |
| LSSCPPPALRLP | 0.715 ± 0.013 |
| RPLYPGSKVQLL | 0.691 ± 0.024 |
| SLPTPPLFPSFP | 0.731 ± 0.014 |
| RAPDHRPGRLQK | 0.724 ± 0.013 |
| SYLDWFLVLDMF | 0.6706 ± 0.0047 |
| FSVGGLVDGRLW | 0.79 ± 0.026 |
| AGRVGRRGPPNR | 0.629 ± 0.038 |
| PVPLSALPPLPP | 0.746 ± 0.034 |
| GRGKGNEREVRT | 0.656 ± 0.022 |
| PRPRRFPPPLLA | 0.5103 ± 0.0049 |
| SPPPAPRPPLPP | 0.709 ± 0.041 |

| Sequence | protein stability index |
| --- | --- |
| PLPPPLDLPPRS | 0.735 ± 0.12 |
| KCPPQKRPTLIQ | 0.679 ± 0.098 |
| HGLDPRRGPSGA | 0.68426 ± 0.00044 |
| PSDTSHPAWRAN | 0.708 ± 0.025 |
| WGFLCVALGRWV | 0.644 ± 0.038 |
| PPPSSSGHPLHY | 0.714 ± 0.05 |
| GVSLLCLFLGSP | 0.6212 ± 0.0041 |
| SPSAVPPALLYS | 0.747 ± 0.2 |
| PTPLPSPCPAPP | 0.703 ± 0.025 |
| GGWGGGCGACVV | 0.72 ± 0.073 |
| GVGLWGVGFRGG | 0.7 ± 0.034 |
| DLLLGDCGVGWF | 0.647 ± 0.056 |
| QGRPPADRATAV | 0.755 ± 0.029 |
| LLHHSSVSFFSL | 0.71 ± 0.016 |
| RAGVRWGGGGGG | 0.67 ± 0.014 |
| KIMKINIYQKKR | 0.691 ± 0.028 |
| IEKKKIDNKVKS | 0.712 ± 0.079 |
| VRGLHRRFEPSN | 0.8 ± 0.088 |
| PALTSSGPPPLV | 0.741 ± 0.096 |
| ADENFKVRKRRS | 0.703 ± 0.057 |
| CKIDGGIIRTCR | 0.676 ± 0.023 |
| MKPPRGRIVITG | 0.626 ± 0.02 |
| LGLSTVKLEVPW | 0.7731 ± 0.0016 |
| LPPRTHSPLSSP | 0.636 ± 0.11 |
| MVDGFLRFDTKM | 0.704 ± 0.13 |
| ITGPPTGSPRYR | 0.588 ± 0.23 |

| Sequence | protein stability index |
| --- | --- |
| RRSPYLPRILTP | 0.661 ± 0.023 |
| RGGGGGGGAAGS | 0.657 ± 0.037 |
| GGSGGAVEERGG | 0.6573 ± 0.0013 |
| PADPRSSPPVQQ | 0.691 ± 0.02 |
| GCELVISCAHPV | 0.695 ± 0.063 |
| PLPPVVPTFSTP | 0.684 ± 0.0077 |
| KKGPANEWKRGE | 0.685 ± 0.081 |
| KKKGDKVGTKEQ | 0.657 ± 0.048 |
| RLGWGGVGVAGV | 0.683 ± 0.013 |
| GCGVGVGASVGR | 0.636 ± 0.025 |
| FLTPPSLSLPPP | 0.68 ± 0.0084 |
| PWPPRPPPPPSL | 0.694 ± 0.048 |
| HYLYSLLVLPPL | 0.658 ± 0.046 |
| SGLLSPHTHMFP | 0.598 ± 0.048 |
| SPHVAPRKLQVS | 0.56147 ± 0.00038 |
| KRGKRKEGGKAR | 0.687 ± 0.065 |
| PPLSLLPSSSPH | 0.664 ± 0.0081 |
| PRLSTYPDSPGS | 0.71038 ± 0.00066 |
| PPPPLSPPPEPR | 0.659 ± 0.014 |
| CFAFRPLLPSSP | 0.686 ± 0.0086 |
| RRSASRQFLLNP | 0.73264 ± 0.00024 |
| PPASPRSPIVSR | 0.723 ± 0.059 |
| RKQNVASESERK | 0.752 ± 0.094 |
| ALPRPPSPFSPL | 0.666 ± 0.078 |
| PLLLAPPPPSPP | 0.739 ± 0.036 |
| RLTRRSCLFSIT | 0.785 ± 0.056 |

| Sequence | protein stability index |
| --- | --- |
| GPSPLTMPGSPS | 0.683 ± 0.064 |
| PILPPVPPRASS | 0.7029 ± 0.0053 |
| GWVNKQVVTEAH | 0.728 ± 0.085 |
| RPSPLPALASSL | 0.65 ± 0.037 |
| NHTLPGTRSSVW | 0.684 ± 0.09 |
| GLCACTSFLVSW | 0.697 ± 0.028 |
| SPCMLLAVPHRL | 0.728 ± 0.044 |
| GGGGGVRLVVSR | 0.668 ± 0.027 |
| IKKTKNKETKKT | 0.676 ± 0.045 |
| GLRCSRVSFFFW | 0.64 ± 0.039 |
| LSPFGTLLNAPP | 0.782 ± 0.075 |
| IAFFFLHIPPAF | 0.569 ± 0.076 |
| SPPPSRHPPPRL | 0.708 ± 0.016 |
| KKRKKDKRSQER | 0.671 ± 0.068 |
| APRPSNRRPRPR | 0.629 ± 0.025 |
| PPSFLHPTPRPR | 0.673 ± 0.082 |
| RSRRPALVLSGN | 0.729 ± 0.011 |
| TGLLGLVGSQVP | 0.67 ± 0.016 |
| LHRRIPFPTQAL | 0.567 ± 0.017 |
| RRLVGEEGRTHV | 0.638 ± 0.05 |
| PPPPRAPVPLPV | 0.575 ± 0.022 |
| DRGCRRRCVGGG | 0.683 ± 0.011 |
| HSPILQPSLPHP | 0.71 ± 0.022 |
